Literature values as cited in publication PMC6815954, “Rational design of caspase-responsive smart molecular probe for positron emission tomography imaging of drug-induced apoptosis” (Theranostics, 2019).

Tested on: tumor
Set-up: method as in PMID 25972517

B1: ^99mTc-Annexin V: established radiotracer (protein, UniProt P08758 2-320, looked up)
Annexin A5: AQVLRGTVTDFPGFDERADAETLRKAMKGLGTDEESILTLLTSRSNAQRQEISAAFKTLFGRDLLDDLKSELTGKFEKLIVALMKPSRLYDAYELKHALKGAGTNEKVLTEIIASRTPEELRAIKQVYEEEYGSSLEDDVVGDTSGYYQRMLVVLLQANRDPDAGIDEAQVEQDAQALFQAGELKWGTDEEKFITIFGTRSVSHLRKVFDKYMTISGFQIEETIDRETSGNLEQLLLAVVKSIRSIPAYLAETLYYAMKGAGTDDHTLIRVMVSRSEIDLFNIRKEFRKNFATSLYSMIKGDTSGDYKKALLLLCGEDD
modifications: 99mTc radiolabel
notes: established radiotracer
differential response to treatment: little differential response
